Consider nine molecules from US20250368742A1.

Residue numbers refer to the chain shown, from its start. Where two headings read alike, the source gives them in different places.

Assay [1] addresses shed MICA004 polypeptide (human) (UniProt Q29983). Briefly: capture ELISA (anti-hFc / antibody / shed antigen / biotin-6D4).
For assay [2], the target named is shed MICA008 polypeptide (human) (UniProt Q29983). The assay is described as above.
Assay [3] concerns the target shed MICA002 polypeptide (human) (UniProt Q29983). Described as above.
Assay [4] has as its target shed MICB005 polypeptide (human) (UniProt Q29980). Described as above.
The target of assay [5] is shed MICA004 polypeptide (human) (UniProt Q29983). Briefly: ELISA: antibody titrated on anti-hFc plate, shed MICA004 captured, detection NKG2D-His + anti-His-HRP.
The target in assay [6] is shed MICA002 polypeptide (human) (UniProt Q29983). In words: ELISA: antibody titrated on anti-hFc plate, shed MICA002 captured, detection NKG2D-His + anti-His-HRP.
The target of assay [7] is shed MICA004 polypeptide (human) (UniProt Q29983). Briefly: capture ELISA (anti-hFc / antibody / shed antigen / biotin-6D4). This is another data set of the same source. (An ELISA detects its analyte on a solid surface through an enzyme-linked reagent.)
The target in assay [8] is shed MICA008 polypeptide (human) (UniProt Q29983). The description is as above. This is another data set of the same source.
Assay [9] has as its target shed MICA002 polypeptide (human) (UniProt Q29983). The description is as above. This is another data set of the same source.
In assay [10] the target is shed MICA004 polypeptide (human) (UniProt Q29983). The assay is described as above. The source holds these as a separate data set.
Assay [11] has as its target shed MICA008 polypeptide (human) (UniProt Q29983). The description is as above. This is another data set of the same source.
Assay [12] deals with shed MICA002 polypeptide (human) (UniProt Q29983). The description is as above. The source holds these as a separate data set.
The target in assay [13] is shed MICB005 polypeptide (human) (UniProt Q29980). Described as above. This is another data set of the same source.

One may read the EC50 as the midpoint of the concentration-response curve.

B1: #31 (antibody, V domains shown)
VH: EVQLQQSGPELVKPGASVKVSCKASGYAFTKYNIYWVKQSHGKSLEWIGYIDPYNGGTVQNQKFKGKATLTVDKSSSTAYMHLNSLTSEDSAVYYCATTDGYSLFTYWGQGTLVTVSS
VL: DIQMTQTTSSLSASLGDRVTISCRASQDIGNYLNWYQQKPDGTVKLLIYYTSRLHSGVPSRFSGSGSGTDYSLTISNLEQEDIATYFCQQGNTLPFTFGSGTKLEIK
As to B1, the concentration for a half-maximal effect (EC50) in assay [1] worked out at 0.2 µg/mL; in assay [2] it was 0.26 µg/mL; in [3], 0.13 µg/mL; in assay [4] it was 0.72 µg/mL. Moreover, the Max OD450 in [1] was found to be 1.72; in assay [2] it was 0.19; in [3], 3.16; in assay [4], 1.37.

B2: #34 (antibody, V domains shown)
VH: B1 VH with E1Q, Q5K
VL: DIVLTQSPTTMAASPGEKITITCSASSSISSNYLHWYQQKPGFSPKLLIYRTSNLASGVPARFSGSGSGTSYSLTIGTMEAEDVATYYCQQGSSIPFTFGSGTKLEIK
Turning to B2, the EC50 in assay [1] came to 0.46 µg/mL; in assay [2] it was 0.3 µg/mL; in assay [3], 0.34 µg/mL; in assay [4], 0.56 µg/mL. In addition, the Max OD450 in assay [1] is 1.23; in assay [2], 0.12; in assay [3] it was 2.75; in assay [4], 0.17.

B3: #36 (antibody, V domains shown)
VH: B1 VH with E1Q, Q60Y, S118A
VL: B1 VL with G30S
For B3, the EC50 in assay [1] stood at 0.47 µg/mL; in assay [2], 0.38 µg/mL; in assay [3], 0.32 µg/mL; in assay [4], 0.84 µg/mL. Besides, the Max OD450 in [1] was found to be 1.31; in assay [2], 0.16; in [3] it was 3; in assay [4], 0.68.

B4: #40 (antibody, V domains shown)
VH: B1 VH with E1Q, Q60Y, S118A
VL: DIQMTQTTSSLSASLGDRVTITCSAGQGINNYLNWYQQKPDGTVKLLIFYTSSLQSGVPSRFSGSGSGADYSLTISNLEPEDIATYYCQQYSKLPLTFGAGTKLELK
With B4, the 50% effective concentration (EC50) in [1] was 0.38 µg/mL; in assay [2], 0.44 µg/mL; in [3], 0.31 µg/mL; in assay [4], 0.73 µg/mL. For the same molecule, the Max OD450 in assay [1] was found to be 1.22; in assay [2] it was 0.13; in assay [3] it was 2.89; in assay [4], 0.17.

B5: #39 (antibody, V domains shown)
VH: QVQLQQSGAELVRPGTSVKVSCKASGYAFTDYLIEWVKQRPGQGLEWIGGINPGSGSTNYNEKFKGKAILTADKSSSTAYMQLSSLTSDDSAVYFCARLDGNYVGYWGQGTTLTVSS
VL: DILLTQSPASLSASVGETVTITCRASGNIHNYLAWYQQKQGKSPQLLVYHAKTLADGVPSRFSGSGSGTQYSLKINSLQPEDFGSYYCQHFWSTPWTFGGGTKLEIK
Turning to B5, the EC50 was 0.34 µg/mL in assay [1], 0.52 µg/mL in assay [2], 0.36 µg/mL in [3] and 0.1 µg/mL in [4]. Besides, the Max OD450 in assay [1] was 0.11; in [2] it was 0.03; in assay [3], 1.01; in assay [4], 2.86.

B6: 3F9 (antibody, human IgG1, kappa, V domains shown)
VH: QVQLVESGGGLVKPGGSLRLSCAASGFTFSNYAMSWIRQAPGKGLEWVSYISPGGDYIYYADSVKGRFTISRDNAKNSLYLQMNSLRAEDTAVYYCTTDRRHYGSYAMDYWGQGTLVTVSS
VL: DIVMTQSPLSLPVTPGEPASISCRSSKSLLHSNLNTYLYWFLQKPGQSPQILIYRMSNLASGVPDRFSGSGSGTAFTLKISRVEAEDVGVYYCMQHLEYPFTFGPGTKLEIKR
On to B6, for which the EC50 in assay [5] came out at 0.071 µg/mL; in assay [6], 0.167 µg/mL; in [1] it was 0.14 µg/mL; in [2], 0.22 µg/mL; in assay [3], 0.09 µg/mL; in assay [7], 0.129 µg/mL. Besides, the EC50 in assay [8] came to 0.105 µg/mL; in assay [9] it was 0.107 µg/mL; in assay [10] it was 0.255 µg/mL; in [11] it was 0.134 µg/mL; in assay [12], 0.131 µg/mL. Moreover, the Max OD450 was determined as 2.49 in [1]; 0.34 in assay [2]; 3.3 in [3]; 1.83 in assay [7]; 1.15 in assay [8]; 1.82 in [9]. The maxOD in assay [10] came to 2.7; in [11] it was 1.51; in [12], 3.96.

B7: 13A9 (antibody, human IgG1, kappa, V domains shown)
VH: QVQLQQSGAELVRPGTSVKVSCKASGYAFTNYLIEWVKQRPGQGLEWIGAINPGSGATNYNEKFKDKARLTADKSSNTAYLQFSSLTSDDSAVYFCARFLGNYFDNWGQGATLTVSS
VL: DIQMTQSPASLSASVGETVTITCRASGNIHSYLAWYQQKQGKSPQLLVYYAETLADGVPSRFSGRGSGTQYSLKINSLQPEDFGSYFCQQFWTTPYTFGGGTKVEIKR
Take B7: the EC50 in assay [5] came out at 0.083 µg/mL; in assay [6] it was 0.06 µg/mL; in assay [1], 0.33 µg/mL; in assay [2], 0.22 µg/mL; in assay [3] it was 0.14 µg/mL; in assay [4] it was 0.04 µg/mL. Besides, the EC50 amounted to 0.47 µg/mL in assay [7], 0.191 µg/mL in [8], 0.176 µg/mL in assay [9] and 0.088 µg/mL in assay [13]. In addition, the Max OD450 in assay [1] came to 0.89; in assay [2], 0.15; in assay [3], 3.1; in [4] it was 2.91; in [7] it was 0.35; in assay [8], 0.48. Moreover, the Max OD450 in assay [9] was 1.42; in [13], 1.28.

B8: 6E1.1.12 (antibody, human IgG1, kappa, V domains shown)
VH: QGQMQQSGAELVKPGASVKLSCKTSGFTFSDNYISWLKQKPGQSLEWIAWIYAGTGGSSYNQKFRDKAQLTVDTSSRTAYMQLSSLTTEDSAIYYCARHDYYGTSGAWFAYWGRGTLVTVSA
VL: DVLMTQTPLSLPVSLGDQASISCRSSQHIVHSNENTYLEWYLQKPGQSPKLLIYKVSNRFSGVPDRFSGSGSGTDFTLKISRVEAEDLGVYYCFQGSHVPWTFGGGTKVEIKR
As to B8, the EC50 in [1] came to 0.42 µg/mL; in assay [2] it was 0.22 µg/mL; in assay [3] it was 0.22 µg/mL; in assay [4], 0.41 µg/mL. In addition, the Max OD450 in assay [1] came out at 1.13; in assay [2], 0.15; in assay [3], 3.35; in [4], 2.42.

B9: #38 (antibody, V domains shown)
VH: QVQLQQSGAELARPGASVKLSCKASGYTFSIHWMQWVKQRPGQGLEWIGAIYPGNGDTKYTQKFKGKATLTADKSSSTAYMQLSNLASEDSAVYYCATLYGNYEAYWGQGTLVTVSA
VL: DIVLTQSPASLSASVGETVTITCGASENIYGALNWYQRKQGKSPQLLIYGTTNLADGMSSRFSGSGSGRQYSLKISSLHPDDVATYYCQNVLTTPPWTFGGGTKLEIK
Take B9: the EC50 worked out at 0.09 µg/mL in assay [1], 0.2 µg/mL in [2], 0.04 µg/mL in assay [3] and 0.02 µg/mL in assay [4]. For the same molecule, the Max OD450 in assay [1] came out at 2.66; in assay [2], 0.16; in assay [3] it was 3.32; in assay [4], 2.97.
